Laboratory results taken from patent publication US9879306B2, “Luciferase biosensors for cAMP” (PROMEGA CORPORATION, priority 2008, dated 2018).

T1: GPR41 (Homo sapiens, UniProt O14843)
T1 sequence (O14843 1-346): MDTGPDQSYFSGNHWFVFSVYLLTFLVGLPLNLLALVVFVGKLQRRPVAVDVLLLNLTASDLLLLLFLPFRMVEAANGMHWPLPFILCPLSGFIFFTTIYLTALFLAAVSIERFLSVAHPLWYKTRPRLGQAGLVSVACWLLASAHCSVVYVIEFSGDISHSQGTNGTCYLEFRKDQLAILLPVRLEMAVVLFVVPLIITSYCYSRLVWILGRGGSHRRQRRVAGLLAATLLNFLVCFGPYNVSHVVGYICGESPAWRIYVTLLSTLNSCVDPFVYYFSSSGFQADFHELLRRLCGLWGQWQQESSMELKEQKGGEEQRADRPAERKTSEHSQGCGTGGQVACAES


How the values were obtained:
Type in all cases: cell-based
GPR41 [1] = target: T1, GPR41; assay: Sodium proprionate CRC with biosensor variants in HEK293 cells stably expressing GPR41
Experimental: (§1) After 24 hours, the cells were transiently transfected with one of the cAMP biosensor variants (Tables 7A and 7B). After another 24 hours, the cells were equilibrated for 2 hours at room temperature using 5 mM EF-luc in CO2 independent media with 10% FBS. Prior to the addition of the compounds, luminescence was measured. The compounds (12× stock in CO2 independent media without FBS) were then added to the cells. For GPR41 expressing cells, sodium proprionate CRC was added. […] The cells were allowed to incubate another 30 minutes and luminescence read on a Varioskan Flash. EC50 values and fold responses were calculated for each of the clones with each of the compounds with or without FSK. In addition, variants […]7 (Example VIIB), 16A2 (Example VIIB) and GS358 were also screened.

GPR41 [2] = assay: as above; details: ratio of RLU of FSK treated well to untreated well
Experimental: as §1

HEK293 cells = assay: Luminescence and fold response of biosensor clones in HEK293 cells after isoproterenol or FSK; details: for Isoproterenol-5 minutes Induced / Isoproterenol-5 minutes Resp: 5 minutes after isoproterenol; for Forskolin (FSK) Induced / Forskolin (FSK) Resp: 15 minutes after FSK; for Isoproterenol-15 minutes Induced / Isoproterenol-15 minutes Resp: 15 minutes after isoproterenol; for Isoproterenol-5 minutes Resp / Forskolin (FSK) Resp / Isoproterenol-15 minutes Resp: RLU induced / RLU uninduced; for Isoproterenol-5 minutes Uninduced / Forskolin (FSK) Uninduced / Isoproterenol-15 minutes Uninduced: uninduced cells; for Forskolin (FSK) Uninduced / Isoproterenol-15 minutes Uninduced: 15 minutes
Experimental: B. HEK293 cells were transiently transfected with plasmid DNAs encoding various biosensor mutants as above. These biosensor mutants contained the E284A and V316I mutation in the RIIbetaB cAMP binding domain and the modified linker sequence 7A1 (GSNWDSGCSREG; SEQ ID NO: 129). The clones also contained the additional mutations outlined in Table 5. Cells were equilibrated for 2 hours at room temperature with 2 mM EF-Luc. Luminescence was measured 5 and 15 minutes after addition of the isoproterenol and 15 minutes after addition of FSK. Fold response (response; Resp.) was calculated by dividing relative light units (RLUs) from induced cells by the RLUs from uninduced cells. As a control, the biosensor GS358 and 7A1 were included.

dopamine D2 receptor = target: T2, dopamine D2 receptor (Homo sapiens, UniProt P14416); assay: Forskolin, dopamine and haloperidol responses of biosensor clones in HEK293 cells stably expressing the dopamine D2 receptor; details: for Dopamine Induced: 3 μM FSK + 0.3 μM dopamine; for Dopamine Induced / Forskolin (FSK) Induced / Forskolin (FSK) Uninduced: 10 minutes; for Forskolin (FSK) Induced: 3 μM FSK; for Halo Induced: 10 μM Haloperidol pre-treatment, then 3 μM FSK + 0.3 μM dopamine; for Dopamine Response: RLU agonist-treated / forskolin-treated; for Forskolin (FSK) Response: RLU forskolin-treated / untreated; for Halo Response: RLU haloperidol then FSK + dopamine / FSK + dopamine alone; for Forskolin (FSK) Uninduced: untreated (media alone)
T2 construct: expressed in transfected cells
Excerpt: To measure changes in the intracellular concentration of cAMP, HEK293 cells are transiently transfected with mutant cAMP biosensors followed by treatment with compounds known to increase or decrease the intracellular cAMP concentration through GPCR activation of Gs- or Gi-coupled receptors, respectively.
HEK293 cells stably expressing the dopamine D2 receptor were transiently transfected with the mutant cAMP biosensors from Example VIIB. Cells were also transfected with either 7A1 (Example III) or GS358 (parent biosensor) as controls. Cells were equilibrated for 2 hours at room temperature using 2 mM EF-luc. Antagonist assay wells were pre-treated for 10-15 minutes at room temperature with 10 μM Haloperidol (Halo). Next, the following reagents were added to their respective wells: media alone to “untreated” samples; 3 μM forskolin (FSK) to “forskolin-treated” samples; 3 μM FSK+0.3 μM dopamine to “agonist-treated” samples; and 3 μM FSK+0.3 μM dopamine to the aforementioned wells pre-treated with Halo. The cells were then incubated at room temperature for 10 minutes and luminescence was measured. Fold response for FSK was calculated by dividing the RLU from “forskolin-treated” cells by the RLU from the “untreated” cells. Fold response for dopamine treatment was calculated by dividing the RLU from the “agonist-treated” cells by the RLU from the “forskolin-treated” cells. Fold response for Haloperidol treatment was calculated by dividing the RLU from the cells treated with haloperidol then forskolin plus dopamine by the RLU of cells treated with forskolin plus dopamine alone.

T2 sequence (P14416 whole entry, species assumed): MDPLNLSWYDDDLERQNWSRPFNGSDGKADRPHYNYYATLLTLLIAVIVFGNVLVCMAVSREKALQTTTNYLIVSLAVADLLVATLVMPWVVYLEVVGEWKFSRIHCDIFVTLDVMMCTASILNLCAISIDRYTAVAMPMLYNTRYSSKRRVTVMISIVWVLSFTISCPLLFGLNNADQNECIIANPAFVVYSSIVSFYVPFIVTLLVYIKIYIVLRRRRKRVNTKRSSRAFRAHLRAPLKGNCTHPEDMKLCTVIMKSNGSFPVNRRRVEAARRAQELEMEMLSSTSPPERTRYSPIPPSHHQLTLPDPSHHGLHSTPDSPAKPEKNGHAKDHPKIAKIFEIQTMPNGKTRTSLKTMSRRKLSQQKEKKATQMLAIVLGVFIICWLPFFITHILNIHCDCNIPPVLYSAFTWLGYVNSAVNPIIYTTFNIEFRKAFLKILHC

Molecule	Fold Response Na proprionate + FSK(1 μM) (GPR41 [1]; with FSK 1 μM)	Fold Response Na proprionate (GPR41 [1]; without FSK, ratio of induced to uninduced signal)	Fold Signal Change (GPR41 [2])	Isoproterenol-5 minutes Induced (HEK293 cells)	Forskolin (FSK) Induced (HEK293 cells)	Isoproterenol-15 minutes Induced (HEK293 cells)	Isoproterenol-5 minutes Resp (HEK293 cells)	Forskolin (FSK) Resp (HEK293 cells)	Isoproterenol-15 minutes Resp (HEK293 cells)	Isoproterenol-5 minutes Uninduced (HEK293 cells)	Forskolin (FSK) Uninduced (HEK293 cells)	Isoproterenol-15 minutes Uninduced (HEK293 cells)	Dopamine Induced (dopamine D2 receptor)	Forskolin (FSK) Induced (dopamine D2 receptor)	Halo Induced (dopamine D2 receptor)	Dopamine Response (dopamine D2 receptor)	Forskolin (FSK) Response (dopamine D2 receptor)	Halo Response (dopamine D2 receptor)	Forskolin (FSK) Uninduced (dopamine D2 receptor)
L9-ILY: L9 background with Luc2.0 F369I, F518L and RIIβB F407Y; SEQ ID NO:82, 83 (protein) MPGAVGKVVPFIEAKVVDLDTGKTLGVNQRGELCVRGPMIMSGYVNNPEATNALIDKDGWLHSGDIAYWDEDEHFFIVDRLKSLIKYKGYQVAPAELESILLQHPNIFDAGVAGLPDDDAGELPAAVVVLEHGKTMTEKEIVDYVASQVTTAKKLRGGVVLVDEVPKGLTGKLDARKIREILIKAKKGSIAGCGDAGEGMYESFIESLPILKSLEFSARLKVVDVIGTKVYNDGEQIIAQGDSADSFYIIESGEVKITMKRKGKSEVEENGAVEIARCSRGQYFGELALVTNKPRAASAHAIGTVKCLAMDVQAFERLLGPCMEIMKRNIATYEEQLVALYGTNMDIVAKNIKKGPAPLYPLEDGTAGEQLHKAMKRYALVPGTIAFTDAHIEVDITYAEYFEMSVRLAEAMKRYGLNTNHRIVVCSENSLQFFMPVLGALFIGVAVAPANDIYNERELLNSMGISQPTVVFVSKKGLQKILNVQKKLPIIQKIIIMDSKTDYQGFQSMYTFVTSHLPPGFNEYDFVPESFDRDKTIALIMNSSGSTGLPKGVALPHRTACVRFSHARDPIFGNQIIPDTAILSVVPFHHGFGMFTTLGYLICGFRVVLMYRFEEELFLRSLQDYKIQSALLVPTLFSFFAKSTLIDKYDLSNLHEIASGGAPLSKEVGEAVAKRFHLPGIRQGYGLTETTSAILITPEGV	4.91 fold	3.34 fold	161.2 fold																
L9-ILQY: L9 background with Luc2.0 F369I, F518L, K541Q and RIIβB F407Y; SEQ ID NO:80, 81 (protein) MPGAVGKVVPFIEAKVVDLDTGKTLGVNQRGELCVRGPMIMSGYVNNPEATNALIDKDGWLHSGDIAYWDEDEHFFIVDRLKSLIKYKGYQVAPAELESILLQHPNIFDAGVAGLPDDDAGELPAAVVVLEHGKTMTEKEIVDYVASQVTTAKKLRGGVVLVDEVPKGLTGKLDARKIREILIQAKKGSIAGCGDAGEGMYESFIESLPFLKSLEFSARLKVVDVIGTKVYNDGEQIIAQGDSADSFFIIESGEVKITMKRKGKSEVEENGAVEIARCSRGQYFGELALVTNKPRAASAHAIGTVKCLAMDVQAFERLLGPCMEIMKRNIATYEEQLVALYGTNMDIVAKNIKKGPAPFYPLEDGTAGEQLHKAMKRYALVPGTIAFTDAHIEVDITYAEYFEMSVRLAEAMKRYGLNTNHRIVVCSENSLQFFMPVLGALFIGVAVAPANDIYNERELLNSMGISQPTVVFVSKKGLQKILNVQKKLPIIQKIIIMDSKTDYQGFQSMYTFVTSHLPPGFNEYDFVPESFDRDKTIALIMNSSGSTGLPKGVALPHRTACVRFSHARDPIFGNQIIPDTAILSVVPFHHGFGMFTTLGYLICGFRVVLMYRFEEELFLRSLQDYKIQSALLVPTLFSFFAKSTLIDKYDLSNLHEIASGGAPLSKEVGEAVAKRFHLPGIRQGYGLTETTSAILITPEGV			152.7 fold																
9G4: 7A1 biosensor with E382K in RIIβb; SEQ ID NO:37, 38 (protein) MPGAVGKVVPFFEAKVVDLDTGKTLGVNQRGELCVRGPMIMSGYVNNPEATNALIDKDGWLHSGDIAYWDEDEHFFIVDRLKSLIKYKGYQVAPAELESILLQHPNIFDAGVAGLPDDDAGELPAAVVVLEHGKTMTEKEIVDYVASQVTTAKKLRGGVVFVDEVPKGLTGKLDARKIREILIKAKKGSNWDSGCSREGMYESFIESLPFLKSLEFSARLKVVDVIGTKVYNDGEQIIAQGDSADSFFIIESGEVKITMKRKGKSEVEENGAVEIARCSRGQYFGELALVTNKPRAASAHAIGTVKCLAMDVQAFKRLLGPCMEIMKRNIATYEEQLVALFGTNMDIVAKNIKKGPAPFYPLEDGTAGEQLHKAMKRYALVPGTIAFTDAHIEVDITYAEYFEMSVRLAEAMKRYGLNTNHRIVVCSENSLQFFMPVLGALFIGVAVAPANDIYNERELLNSMGISQPTVVFVSKKGLQKILNVQKKLPIIQKIIIMDSKTDYQGFQSMYTFVTSHLPPGFNEYDFVPESFDRDKTIALIMNSSGSTGLPKGVALPHRTACVRFSHARDPIFGNQIIPDTAILSVVPFHHGFGMFTTLGYLICGFRVVLMYRFEEELFLRSLQDYKIQSALLVPTLFSFFAKSTLIDKYDLSNLHEIASGGAPLSKEVGEAVAKRFHLPGIRQGYGLTETTSAILITPEGV				27930 RLU	263020 RLU	264500 RLU	50 fold	46 fold	46 fold	553 RLU	5760 RLU	5760 RLU	1735 RLU	4133 RLU	4370 RLU	0.42 fold	14 fold	2.5 fold	293 RLU
1B3: 7A1 biosensor with A338E in RIIβb; SEQ ID NO:33, 34 (protein) MPGAVGKVVPFFEAKVVDLDTGKTLGVNQRGELCVRGPMIMSGYVNNPEATNALIDKDGWLHSGDIAYWDEDEHFFIVDRLKSLIKYKGYQVAPAELESILLQHPNIFDAGVAGLPDDDAGELPAAVVVLEHGKTMTEKEIVDYVASQVTTAKKLRGGVVFVDEVPKGLTGKLDARKIREILIKAKKGSNWDSGCSREGMYESFIESLPFLKSLEFSARLKVVDVIGTKVYNDGEQIIAQGDSADSFFIIESGEVKITMKRKGKSEVEENGEVEIARCSRGQYFGELALVTNKPRAASAHAIGTVKCLAMDVQAFERLLGPCMEIMKRNIATYEEQLVALFGTNMDIVAKNIKKGPAPFYPLEDGTAGEQLHKAMKRYALVPGTIAFTDAHIEVDITYAEYFEMSVRLAEAMKRYGLNTNHRIVVCSENSLQFFMPVLGALFIGVAVAPANDIYNERELLNSMGISQPTVVFVSKKGLQKILNVQKKLPIIQKIIIMDSKTDYQGFQSMYTFVTSHLPPGFNEYDFVPESFDRDKTIALIMNSSGSTGLPKGVALPHRTACVRFSHARDPIFGNQIIPDTAILSVVPFHHGFGMFTTLGYLICGFRVVLMYRFEEELFLRSLQDYKIQSALLVPTLFSFFAKSTLIDKYDLSNLHEIASGGAPLSKEVGEAVAKRFHLPGIRQGYGLTETTSAILITPEGV				59767 RLU	305500 RLU	344375 RLU	36 fold	47 fold	53 fold	1673 RLU	6460 RLU	6460 RLU	1898 RLU	8410 RLU	5228 RLU	0.23 fold	18 fold	2.8 fold	460 RLU
